Test results taken from article PMC5243199 (Cancer research, 2016).
Where no end group is shown, it is not given here.

B1: His-menin (natural protein, UniProt O00255-2 1-610, looked up)
chain: MGLKAAQKTLFPLRSIDDVVRLFAAELGREEPDLVLLSLVLGFVEHFLAVNRVIPTNVPELTFQPSPAPDPPGGLTYFPVADLSIIAALYARFTAQIRGAVDLSLYPREGGVSSRELVKKVSDVIWNSLSRSYFKDRAHIQSLFSFITGTKLDSSGVAFAVVGACQALGLRDVHLALSEDHAWVVFGPNGEQTAEVTWHGKGNEDRRGQTVNAGVAERSWLYLKGSYMRCDRKMEVAFMVCAINPSIDLHTDSLELLQLQQKLLWLLYDLGHLERYPMALGNLADLEELEPTPGRPDPLTLYHKGIASAKTYYRDEHIYPYMYLAGYHCRNRNVREALQAWADTATVIQDYNYCREDEEIYKEFFEVANDVIPNLLKEAASLLEAGEERPGEQSQGTQSQGSALQDPECFAHLLRFYDGICKWEEGSPTPVLHVGWATFLVQSLGRFEGQVRQKVRIVSREAEAAEAEEPWGEEAREGRRRGPRRESKPEEPPPPKKPALDKGLGTGQGAVSGPPRKPPGTVAGTARGPEGGSTAQVPAPTASPPPEGPVLTFQSEKMKGMKELLVATKINSSAIKLQLTAQSQVQMKKQKVSTPSDYTLSFLKRQRKGL
B2: His-Daxx (183–260) (domain or fragment, UniProt Q9UER7 183-260, looked up)
chain: GSRRQIQRLEQLLALYVAEIRRLQEKELDLSELDDPDSAYLQEARLKRKLIRLFGRLCELKDCSSLTGRVIEQRIPYR
B3: biotinylated menin peptide GTCKWEEGSPTPVLHVGWATQSE (peptide)
peptide: GTCKWEEGSPTPVLHVGWATQSE
modifications: also: biotinylated

Experiments:
GST-Daxx = GST-Daxx (UniProt Q9UER7 1-740); test: pull-down
GST-Daxx, sequence (Q9UER7 whole entry): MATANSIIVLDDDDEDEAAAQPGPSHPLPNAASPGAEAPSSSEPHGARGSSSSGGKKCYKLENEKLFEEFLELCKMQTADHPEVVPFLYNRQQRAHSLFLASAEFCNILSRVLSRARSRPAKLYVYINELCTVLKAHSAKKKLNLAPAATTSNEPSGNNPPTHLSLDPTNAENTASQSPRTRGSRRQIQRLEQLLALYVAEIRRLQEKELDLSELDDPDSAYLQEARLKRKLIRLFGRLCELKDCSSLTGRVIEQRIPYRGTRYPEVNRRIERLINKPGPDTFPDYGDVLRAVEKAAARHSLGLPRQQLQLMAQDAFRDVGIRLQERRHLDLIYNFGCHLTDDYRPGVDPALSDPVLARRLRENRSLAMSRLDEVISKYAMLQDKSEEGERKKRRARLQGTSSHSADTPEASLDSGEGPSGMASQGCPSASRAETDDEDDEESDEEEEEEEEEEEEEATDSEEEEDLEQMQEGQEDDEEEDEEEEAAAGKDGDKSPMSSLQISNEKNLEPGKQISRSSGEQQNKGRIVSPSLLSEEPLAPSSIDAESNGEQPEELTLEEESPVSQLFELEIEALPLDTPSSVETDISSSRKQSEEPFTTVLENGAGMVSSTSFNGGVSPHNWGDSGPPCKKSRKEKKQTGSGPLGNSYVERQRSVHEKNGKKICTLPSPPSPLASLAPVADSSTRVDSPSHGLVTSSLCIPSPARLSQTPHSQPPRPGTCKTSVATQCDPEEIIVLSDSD

His-menin = biological target: B1; test: co-IP
His-Daxx (183–398) = His-Daxx (183–398) (UniProt Q9UER7 183-398); test: pull-down

Binder: B1
binding result (GST-Daxx): binds

Binder: B2
binding result (His-menin): binds

Binder: B3
binding result (His-Daxx (183–398)): binds
